Molecular target: the molecule itself
Assay: western blot of cell lysates

B1: serine racemase (enzyme, rat (endogenous in primary microglia), UniProt Q76EQ0 1-333, looked up)
chain: MCAQYCISFADVEKAHLNIQDSVHLTPVLTSSILNQIAGRNLFFKCELFQKTGSFKIRGALNAIRGLIPDTLEGKPKAVVTHSSGNHGQALTYAAKLEGIPAYIVVPQTAPNCKKLAIQAYGASIVYSEPSDESRENVAQRIIQETEGILVHPNQEPAVIAGQGTIALEVLNQVPLVDALVVPVGGGGMVAGIAITIKTLKPSVKVYAAEPSNADDCYQSKLKGELTPNLHPPETIADGVKSSIGLNTWPIIRDLVDDVFTVTEDEIKYATQLVWERMKLLIEPTAGVGLAAVLSQHFQTVSPEVKNICIVLSGGNVDLTSLSWVKQAERPAP
stoichiometry N: 2
